How the values were obtained:
Settings in all cases: remark: other sources report otherwise
[1] = molecular target: purified HLA-B*0801 (human); experiment: competition radioimmunoassay on purified HLA, radiolabeled standard peptide
[2] = molecular target: purified HLA-B*0702 (human); experiment: as above
[3] = molecular target: purified HLA-B*0702 (human); experiment: competition solid-phase radioimmunoassay on purified HLA-B7, radiolabeled standard peptide
[4] = molecular target: HLA-B*0702 on T2-B7 cells (human); experiment: MHC stabilization assay on T2-B7 cells (flow cytometry), relative to a reference peptide
[5] = molecular target: purified HLA-B*5301 (human); experiment: competition radioimmunoassay on purified HLA, radiolabeled standard peptide
[6] = molecular target: purified HLA-B*3501 (human); experiment: as above

Row | Binder | IC50 [1] [nM] | IC50 [2] [nM] | IC50 [3] [nM] | RA (relative avidity) [4] | IC50 [5] [nM] | IC50 [6] [nM]
1 | DPRRLVQLL [hTRT peptide p444 (…)] | 217 | 239 | 239 |  |  | 
2 | RPAEEATSL [hTRT peptide p277 (…)] |  |  |  | 4.7 |  | 
3 | RPSFLLSSL [hTRT peptide p342 (…)] | 37 |  |  |  | 2200 | 1020
